Laboratory results published in PMC2701922.

Legend:
purified protein [1] = substrate: NC(=O)c1ccc[n+]([C@@H]2O[C@H](COP(=O)(O)OP(=O)(O)OC[C@H]3O[C@@H](n4cnc5c(N)ncnc54)[C@H](O)[C@@H]3O)[C@@H](O)[C@H]2O)c1; assay: purified protein; type: biochemical, Thermotoga maritima; details: 50-1000 μM NAD+, with 6-phosphogluconate, 80°C, varied: cofactor
purified protein [2] = substrate: NC(=O)c1ccc[n+]([C@@H]2O[C@H](COP(=O)(O)OP(=O)(O)OC[C@H]3O[C@@H](n4cnc5c(N)ncnc54)[C@H](OP(=O)(O)O)[C@@H]3O)[C@@H](O)[C@H]2O)c1; assay: purified protein; type: biochemical, Thermotoga maritima; details: 2 mM 6-phosphogluconate, 50 mM Hepes pH 7.5, 5 mM Mg2+, 0.5 mM Mn2+, 80°C, varied: cofactor

B1: T. maritima 6PGDH (Thermotoga maritima MSB8) (protein)
chain: MKSHIGLIGLAVMGQNLALNIARKGYKVSVYNRTAQRTEEFVKNRVTNEEIEPHYDIESFVKSLERPRKIILMVKAGKPVDDTISQLLPHLEPGDLIIDGGNSHYMDTERRFKELSEKGILFLGMGVSGGEYGALHGPSLMPGGSREAYNLVEEILLEIAAKTEDGPCCTYVGERSAGHFVKMVHNGIEYAIMQAIAEVYHIMRDVLSLSSEEMSSIFEEWNRGELSSFLVEITYKILRKKDEETGKPMVDVILDKAEQKGTGKWTSQAALDLGIPTPSINLAVVERVISHFKDIRTRLSKLYNKRRSATQGSEEFLRDLRNSLFFAMFMAFSQGMWLIAEASKEFGYGVSLSEVLRIWKGGCIIRAKLIDTLRRYISNENAYLLENEEVMNLLKGKIDSLKNILKASIENEIPVPVLSSSYNYFMSLTEERLPANLIQAQRDFFGAHTFERVDREGVFHINWEEGEIG
notes: full length, expressed in E. coli as CBM-intein-6PGDH fusion, tag removed by intein self-cleavage; 53 kDa
Q: What does the source list for B1?
A: Km (purified protein [1]): 380 µM; Km (purified protein [2]): 10 µM
